Molecular target: T1, LmrR (Lactococcus lactis) (UniProt A2RI36)
T1 sequence: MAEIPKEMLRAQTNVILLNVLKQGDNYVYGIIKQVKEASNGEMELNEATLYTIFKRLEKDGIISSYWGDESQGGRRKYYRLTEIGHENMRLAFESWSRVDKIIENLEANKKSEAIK
Assay: NMR titration
Conditions: apo; apparent Kd per base pair; DNA is a fragment pool; 10 mM NaPi pH 6.8, 100 mM NaCl, 25 C (ITC; same buffer for NMR); 5% DMSO in riboflavin titrations

sonicated E. coli genomic DNA was tested, and the Kd was 37 µM.
